For orientation: stoichiometry N means the number of molecules, sites or subunits per partner or assembly.

Data set [1] concerns the molecule itself. The data set is described as follows: single molecule pulldown.
Data set [2] concerns the molecule itself. In words: cryo-EM structure.

B1: C. elegans TMC-1 with C-terminal 3C site-mVenus-3xFLAG (tmc-1::mVenus knock-in) (natural protein, UniProt D3KZG3 1-1285, looked up)
chain: MQEAARRASLRKEHTPTNEKFGDLSKQDSLGERASSKLTLDDELYDILYAFGETDAFINKGDKQRETDEDGNPLTRQALLERIRQKKEVIGKLRCQAWSMTRKRRTLKLAQKYLEQHESKVSRSHLYMEEMRKRARLMKRSFSNFKTYLIPWESKIKRIESHFGSVVSSYFTFLRWIVFVNIMITLIALVFVVLPETLADSVANEGRFNRTKTRKQIPANERVHADELAVVWHYDGYLRYSPLFYGYYSDDPFLGNKIKYALPLAYFMVTLTIFAYSFFAILRKMAANARMSKLSGSKAEQYIFNWKLFTGWDYTIGNSETASNTVMAVVIKLRESIADIKKDAHGKFRLLQFSLRVFANIIICAMLGFSIYCIIFAVQKSQVQDDGNLFTKNQVPSVVSTITHVFPMIFDLIGKMENYHPRTALRAHLGRVLILYTVNYITLIFALFEKMTALRDRVNSTSTSSSHRTKRQQGGWNPNMQRPPPYASRAEVRQMSDFLAANTRRFQTVSQRTTRSVTTPFTVAPQFGPFNVNNPNAVFHNGTHSTSFESQILGPKALPIFTPPPRKYPGFTPGNVGQQFGGPDFPRNQVYTKSTPLPRVRTKPPWVYTTTHPPLVQNRAMTTTMSKSAKKGNSKNLDDDILLSNETIQMSEAALRRNHDGHNNDICWETIIGQEIVKLVTMDLIFTILSILVIDLFRGLWIKYCSSWWCWDIETTFPEYGEFKVAENVLHIINNQGMIWLGLFFAPLLPAINNIKLIILMYIRGWAVMTCNVPAREIFRASRSSNFYLGILLIWLLLCTLPVGFVIASMSPSRSCGPFARYQHFYTVVTREIEKRVDQTVLSYIRHIASPGVVIPIILFLILIIYFLFSLVRGLREANTDLQAQLVHERTEEKKKIFELAGGKKNKFEKDRDKKRSNDYIPLIEQRRREPWRQYHEMEADHALASDSSEESDINEDEDDERQPLTAYPLRAIETPPETLQVTAFHPSLGSLIENREMEDEESASGDQLPMIHKSVSFQGPSHMQMRQSISTESCSQISRSAIQVATPEEIRALLRPYLEAKYGIPYQHGIKSFPIDVHTPPNNTPSRRSSKYNSFVSLYEHTRDDHKNFVASTIKETDEDPGKSDKKQTSSKDVAPDFMPWPSADEARALREKMKSKTPLMLTKTTVEEKPKGGKSSESEFRPPVPIHRKYNIQTTEEENEEEETDSAPESSKKRFRISVSPTKTIAPASASRAQHKIVSQASSSSSIPHGRQPDPNKKASLVLPPLRAPRVQFDEDDSPRQID
On to B1, for which the “stoichiometry N” value in data set [1] was determined as 2.

B2: C. elegans TMC-1 (pore-forming subunit of the native TMC-1 complex), after removal of mVenus-3xFLAG by 3C protease (natural protein, UniProt D3KZG3 1-1285, looked up)
chain: MQEAARRASLRKEHTPTNEKFGDLSKQDSLGERASSKLTLDDELYDILYAFGETDAFINKGDKQRETDEDGNPLTRQALLERIRQKKEVIGKLRCQAWSMTRKRRTLKLAQKYLEQHESKVSRSHLYMEEMRKRARLMKRSFSNFKTYLIPWESKIKRIESHFGSVVSSYFTFLRWIVFVNIMITLIALVFVVLPETLADSVANEGRFNRTKTRKQIPANERVHADELAVVWHYDGYLRYSPLFYGYYSDDPFLGNKIKYALPLAYFMVTLTIFAYSFFAILRKMAANARMSKLSGSKAEQYIFNWKLFTGWDYTIGNSETASNTVMAVVIKLRESIADIKKDAHGKFRLLQFSLRVFANIIICAMLGFSIYCIIFAVQKSQVQDDGNLFTKNQVPSVVSTITHVFPMIFDLIGKMENYHPRTALRAHLGRVLILYTVNYITLIFALFEKMTALRDRVNSTSTSSSHRTKRQQGGWNPNMQRPPPYASRAEVRQMSDFLAANTRRFQTVSQRTTRSVTTPFTVAPQFGPFNVNNPNAVFHNGTHSTSFESQILGPKALPIFTPPPRKYPGFTPGNVGQQFGGPDFPRNQVYTKSTPLPRVRTKPPWVYTTTHPPLVQNRAMTTTMSKSAKKGNSKNLDDDILLSNETIQMSEAALRRNHDGHNNDICWETIIGQEIVKLVTMDLIFTILSILVIDLFRGLWIKYCSSWWCWDIETTFPEYGEFKVAENVLHIINNQGMIWLGLFFAPLLPAINNIKLIILMYIRGWAVMTCNVPAREIFRASRSSNFYLGILLIWLLLCTLPVGFVIASMSPSRSCGPFARYQHFYTVVTREIEKRVDQTVLSYIRHIASPGVVIPIILFLILIIYFLFSLVRGLREANTDLQAQLVHERTEEKKKIFELAGGKKNKFEKDRDKKRSNDYIPLIEQRRREPWRQYHEMEADHALASDSSEESDINEDEDDERQPLTAYPLRAIETPPETLQVTAFHPSLGSLIENREMEDEESASGDQLPMIHKSVSFQGPSHMQMRQSISTESCSQISRSAIQVATPEEIRALLRPYLEAKYGIPYQHGIKSFPIDVHTPPNNTPSRRSSKYNSFVSLYEHTRDDHKNFVASTIKETDEDPGKSDKKQTSSKDVAPDFMPWPSADEARALREKMKSKTPLMLTKTTVEEKPKGGKSSESEFRPPVPIHRKYNIQTTEEENEEEETDSAPESSKKRFRISVSPTKTIAPASASRAQHKIVSQASSSSSIPHGRQPDPNKKASLVLPPLRAPRVQFDEDDSPRQID
modifications: N-linked glycan at N209
With B2, the “stoichiometry N” value in data set [2] turned out to be 2.

Source of the values: publication doi:10.1101/2022.05.06.490478 (bioRxiv, 2022).
